Where “and” joins values, the source holds several entries; their conditions need not be identical. Identical values can stand only once.
Key:
[1] = target: human pro-TGF-β1 (C4S, R249A furin-site mutant, N107Q, N147Q), purified (human); test: negative-stain electron microscopy
[2] = target: pro-TGF-β1 prodomain expressed in absence of the growth factor (latency-associated peptide, LAP); test: SPR

stoichiometry N (αVβ6 headpieces per pro-TGF-β1 dimer) [1]: 2 and 1
Kd [2]: 7.6 nM
Substance: soluble integrin αVβ6 headpiece (from UniProt P06756 31-625; P18564 22-491) (complex)

From publication PMC5586147
